# Where a chain is given by its changes, count along the chain named.
# T1: Tth SSB (Rev 101) (Thermus thermophilus HB8, UniProt Q5SLP9 SEQ:21-283)
# T1 sequence: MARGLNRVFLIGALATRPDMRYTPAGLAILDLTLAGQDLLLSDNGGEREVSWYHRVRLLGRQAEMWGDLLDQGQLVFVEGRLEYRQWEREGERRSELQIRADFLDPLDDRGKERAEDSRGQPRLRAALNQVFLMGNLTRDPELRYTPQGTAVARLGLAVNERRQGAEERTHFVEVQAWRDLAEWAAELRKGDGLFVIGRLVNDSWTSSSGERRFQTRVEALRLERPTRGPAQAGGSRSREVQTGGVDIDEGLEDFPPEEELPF
# T2: Tth SSB F255P (Rev 101 F225P) (Thermus thermophilus HB8, UniProt Q5SLP9 SEQ:21-283)
# T2 chain: T1 sequence with F255P
# What was measured:
# Tth SSB (Rev 101) = molecular target: T1, Tth SSB (Rev 101); assay: EMSA; Kd value only in FIG. 12; 50 mM Tris pH 7.5, 50 mM NaCl, 0.1 mM DTT, 60 C 10 min; 0.25 nM oligo; protein 0.1-4 uM; conditions: chain copies: 2 (inferred); label: 5'-FAM
# Procedure: (§1) An electrophoretic mobility shift assay was used to determine the binding affinity (Kd) for the Tth F255P SSB and Tth SSB. An oligonucleotide of 35 bases labelled at the 5′ end with fluorescein (FAM) dye was used as the substrate. The sequence of the oligonucleotide is 5′ FAM GTGTAGATCTCGGTGGTCGCCGTATCATTAAAAAA (SEQ ID NO: 14). A titration of Tth F255P SSB or Tth SSB was used ranging from 0.1 to 4 μM. The reaction buffer was 50 mM Tris pH 7.5, 50 mM NaCl, and 0.1 mM DTT with each reaction utilizing […] of labelled oligonucleotide. The reactions were incubated at 60° C. for 10 minutes. The reactions were resolved on 10% acrylamide native TBE gel and imaged with Typhoon Scanner. The fraction of bound versus unbound for each concentration tested was determined and fitted for Kd analysis.
# [1] = molecular target: T2, Tth SSB F255P (Rev 101 F225P); assay: as above; conditions: chain copies: 2 (inferred); label: 5'-FAM
# Procedure: as §1
binder,measurement,setting,value
GTGTAGATCTCGGTGGTCGCCGTATCATTAAAAAA (ssDNA) [5'-FAM 35-mer oligonucleotide],binding result,Tth SSB (Rev 101),binds
same,binding result,[1],binds
